Experimental data from US20240247301A1, “DIAGNOSTIC ASSAY FOR CLASSIC INBORN GALACTOSEMIA” (Ohio State Innovation Foundation, priority 2022, published 2024).
Several values for one entry are separate records, joined by “and”; a condition that tells them apart may be missing. Identical values can stand only once.

Substrate: O=P(O)(O)O[C@H]1O[C@H](CO)[C@H](O)[C@H](O)[C@H]1O
Assay: purified protein, by the assay type
[1] = other: SUMO-tagged YidA as coupling enzyme, pH 8.0

B1: Duarte GalT (galactose-1-phosphate uridylyltransferase, Duarte variant) (Homo sapiens; N314D) (protein)
chain: MSRSGTDPQQRQQASEADAAAATFRANDHQHIRYNPLQDEWVLVSAHRMKRPWQGQVEPQLLKTVPRHDPLNPLCPGAIRANGEVNPQYDSTFLFDNDFPALQPDAPSPGPSDHPLFQAKSARGVCKVMCFHPWSDVTLPLMSVPEIRAVVDAWASVTEELGAQYPWVQIFENKGAMMGCSNPHPHCQVWASSFLPDIAQREERSQQAYKSQHGEPLLMEYSRQELLRKERLVLTSEHWLVLVPFWATWPYQTLLLPRRHVRRLPELTPAERDDLASIMKKLLTKYDNLFETSFPYSMGWHGAPTGSEAGANWDHWQLHAHYYPPLLRSATVRKFMVGYEMLAQAQRDLTPEQAAERLRALPEVHYHLGQKDRETATIA
Q: For B1, which Km [1] is on record?
A: 890 ± 30 µM

Q: What about the kcat [1] of the same protein?
A: 14.8 ± 0.867 s⁻¹

Q: And the Km (other: mean ± SD of three independent trials, pH 8.0)?
A: 660 ± 20 µM and 530 ± 40 µM

Q: And the Km (other: single trials, ± curve-fit error, pH 8, 37° C., 0.8 mM UDP-glucose, 37.0 °C)?
A: 550 ± 90 µM and 480 ± 30 µM

Q: And the Km (other: single trials, ± curve-fit error, pH 8.0, 37° C., 1 mM UDP-glucose, 37.0 °C)?
A: 670 ± 180 µM and 630 ± 140 µM and 670 ± 150 µM
